The results in this text go back to PMC3103650 (Chemico-biological interactions, 2011).

In general, stoichiometry N refers to a count of units in the complex or per binding partner.

This series deals with the molecule itself. Put plainly: SEC.

B1: C-terminal domain of mtFDH (ALDH1L2), residues 413-923 (domain or fragment, human, UniProt Q3SY69 413-923, looked up)
chain: VRKLRGEDQEVELVVDYISKEVNEIMVKMPYQCFINGQFTDADDGKTYDTINPTDGSTICKVSYASLADVDKAVAAAKDAFENGEWGRMNARERGRLMYRLADLLEENQEELATIEALDSGAVYTLALKTHIGMSVQTFRYFAGWCDKIQGSTIPINQARPNRNLTFTKKEPLGVCAIIIPWNYPLMMLAWKSAACLAAGNTLVLKPAQVTPLTALKFAELSVKAGFPKGVINIIPGSGGIAGQRLSEHPDIRKLGFTGSTPIGKQIMKSCAVSNLKKVSLELGGKSPLIIFNDCELDKAVRMGMGAVFFNKGENCIAAGRLFVEESIHDEFVTRVVEEIKKMKIGDPLDRSTDHGPQNHKAHLEKLLQYCETGVKEGATLVYGGRQVQRPGFFMEPTVFTDVEDYMYLAKEESFGPIMVISKFQNGDIDGVLQRANSTEYGLASGVFTRDINKAMYVSEKLEAGTVFINTYNKTDVAAPFGGVKQSGFGKDLGEEALNEYLKTKTVTLEY
Turning to B1, the “stoichiometry N” value was determined as 4.
